As usually defined, the Kd is the free concentration of one partner at which half of the binding sites on the other are occupied at equilibrium, for simple one-to-one binding. Lower therefore signals tighter binding.

The source of these data is patent publication US8772451.

For assay [1], the target named is cognate MHC/peptide of the 264scTCR (HLA-A2.1/p53 aa 264-272), form in SPR not stated (human). As to the kind of experiment: surface plasmon resonance, physiological conditions. (Surface plasmon resonance follows binding to a sensor surface in real time, without labels.)
The target in assay [2] is HLA-A2.1 presenting human p53 (aa 149-157) control peptide, on T2 cells (human). As to the kind of experiment: flow cytometry on peptide-loaded T2 cells, fusion protein at 125 pM, H57-PE detection. A general note: In flow cytometry, cells or beads pass a laser one at a time.
The target in assay [3] is HLA-A2.1 presenting p53 (aa264-273) peptide, on T2 cells (human). The assay is described as above.
Assay [4] has the same target. As to the kind of experiment: quantitative flow cytometry on peptide-loaded T2 cells, PE anti-human IgG detection.

In turn, 264scTCR displayed a Kd in assay [1] of 100 nM. That is a sub-micromolar value.
With “264scTCR/BirA (monomeric, without biotinylation)”, the mean channel fluorescence (MCF) came to 13.4 MCF in assay [2] and 95.1 MCF in assay [3].
Consider “264scTCR/IgG1 fusion protein (from UniProt P01857 1-330)”, for which, in assay [4], the fold increase in staining against 264scTCR/BirA tetramers is 4 to 10 fold. Besides, the mean channel fluorescence (MCF) was 119 MCF in assay [2] and 863 MCF in assay [3].
“264scTCR/trunIgG1 (from UniProt P01857 1-98)”: the mean channel fluorescence (MCF) turned out to be 10.9 MCF in assay [2] and 55.3 MCF in assay [3].
